Laboratory results as given in EP2127683A1 (Metheresis Translational Research SA, dated 2009).

Experiments:
[1] = target: T1, Met on human tumour cells (GTL-16, FaDu) (human, UniProt P08581 25-1390); assay: cell-binding assay (Lindmo), radiolabelled antibody on paraformaldehyde-fixed GTL-16 cells, double-reciprocal plot extrapolated
T1 construct: whole, on cells; Endogenous Met on 2% paraformaldehyde-fixed cells; also called Hepatocyte Growth Factor Receptor; HGFR

[2] = target: T1, Met on human tumour cells (GTL-16, FaDu); assay: cell-binding assay (Lindmo), radiolabelled antibody on serial dilution of paraformaldehyde-fixed GTL-16 cells
Met = target: T2, Met (UniProt P08581 25-932, limits assumed)
T2 construct: Target of the stated Kd; The assay and the construct are not described; also called Hepatocyte Growth Factor Receptor; HGFR
T2 sequence (P08581 25-932 limits assumed): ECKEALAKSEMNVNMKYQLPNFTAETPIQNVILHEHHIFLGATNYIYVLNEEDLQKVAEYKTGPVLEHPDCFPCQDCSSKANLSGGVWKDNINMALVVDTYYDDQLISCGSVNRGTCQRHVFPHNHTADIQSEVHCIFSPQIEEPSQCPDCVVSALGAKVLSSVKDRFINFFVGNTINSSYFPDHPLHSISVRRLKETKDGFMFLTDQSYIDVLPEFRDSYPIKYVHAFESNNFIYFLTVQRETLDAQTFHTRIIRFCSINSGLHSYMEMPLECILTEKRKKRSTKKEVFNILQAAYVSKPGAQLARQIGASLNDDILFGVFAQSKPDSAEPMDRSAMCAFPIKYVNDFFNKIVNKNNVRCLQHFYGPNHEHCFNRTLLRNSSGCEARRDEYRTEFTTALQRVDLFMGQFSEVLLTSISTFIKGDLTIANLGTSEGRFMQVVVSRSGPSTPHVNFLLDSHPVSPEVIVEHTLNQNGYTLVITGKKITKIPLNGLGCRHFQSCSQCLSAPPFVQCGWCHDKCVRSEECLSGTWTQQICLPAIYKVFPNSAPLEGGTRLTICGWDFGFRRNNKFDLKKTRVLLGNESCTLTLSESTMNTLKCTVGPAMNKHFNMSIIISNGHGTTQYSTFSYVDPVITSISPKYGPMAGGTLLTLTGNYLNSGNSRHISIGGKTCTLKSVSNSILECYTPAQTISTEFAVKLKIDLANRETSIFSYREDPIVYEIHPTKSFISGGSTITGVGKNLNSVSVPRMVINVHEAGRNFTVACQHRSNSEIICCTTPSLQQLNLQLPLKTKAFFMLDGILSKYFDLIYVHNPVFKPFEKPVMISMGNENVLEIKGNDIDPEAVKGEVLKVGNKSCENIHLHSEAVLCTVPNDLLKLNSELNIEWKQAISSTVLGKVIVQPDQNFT

[3] = target: T1, Met on human tumour cells (GTL-16, FaDu); assay: immunocytochemistry on fixed cytospins and immunohistochemistry on frozen xenograft sections, streptavidin-alkaline phosphatase

T1 sequence (P08581 25-1390): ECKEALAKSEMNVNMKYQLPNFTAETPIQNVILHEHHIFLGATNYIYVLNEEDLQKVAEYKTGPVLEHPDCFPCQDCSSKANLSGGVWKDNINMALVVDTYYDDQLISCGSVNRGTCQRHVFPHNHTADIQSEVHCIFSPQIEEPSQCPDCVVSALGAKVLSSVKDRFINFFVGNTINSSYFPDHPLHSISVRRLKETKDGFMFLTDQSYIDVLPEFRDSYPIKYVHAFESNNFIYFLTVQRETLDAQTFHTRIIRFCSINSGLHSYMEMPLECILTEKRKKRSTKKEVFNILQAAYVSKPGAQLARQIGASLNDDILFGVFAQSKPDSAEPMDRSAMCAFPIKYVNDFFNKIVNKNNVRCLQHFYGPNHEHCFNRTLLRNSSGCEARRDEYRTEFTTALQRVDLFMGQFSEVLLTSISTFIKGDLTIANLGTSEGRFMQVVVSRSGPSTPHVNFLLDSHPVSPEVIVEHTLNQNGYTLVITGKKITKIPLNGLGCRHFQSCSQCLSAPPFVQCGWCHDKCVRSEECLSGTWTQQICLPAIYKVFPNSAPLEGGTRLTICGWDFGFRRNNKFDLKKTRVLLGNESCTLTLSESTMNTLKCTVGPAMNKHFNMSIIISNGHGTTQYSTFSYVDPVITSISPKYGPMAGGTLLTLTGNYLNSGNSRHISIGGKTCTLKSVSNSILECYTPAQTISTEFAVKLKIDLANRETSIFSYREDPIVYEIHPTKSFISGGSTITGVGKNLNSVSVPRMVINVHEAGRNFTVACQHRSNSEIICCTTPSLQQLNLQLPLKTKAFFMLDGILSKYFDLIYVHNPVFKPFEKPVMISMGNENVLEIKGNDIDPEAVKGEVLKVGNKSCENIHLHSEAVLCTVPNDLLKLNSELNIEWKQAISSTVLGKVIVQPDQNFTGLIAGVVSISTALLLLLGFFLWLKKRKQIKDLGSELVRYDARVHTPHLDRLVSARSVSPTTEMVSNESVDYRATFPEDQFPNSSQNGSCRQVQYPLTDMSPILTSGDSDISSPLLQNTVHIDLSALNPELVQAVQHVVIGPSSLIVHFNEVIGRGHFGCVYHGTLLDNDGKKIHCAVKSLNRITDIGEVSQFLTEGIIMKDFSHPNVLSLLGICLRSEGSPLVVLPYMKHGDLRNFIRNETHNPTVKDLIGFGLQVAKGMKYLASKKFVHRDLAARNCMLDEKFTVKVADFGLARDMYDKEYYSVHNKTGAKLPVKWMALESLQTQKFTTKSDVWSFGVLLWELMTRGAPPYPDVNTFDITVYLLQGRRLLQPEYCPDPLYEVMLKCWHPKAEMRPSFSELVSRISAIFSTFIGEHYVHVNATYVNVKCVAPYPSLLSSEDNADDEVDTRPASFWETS

| Binder | immunoreactivity at infinite antigen excess [1] [%] | immunoreactivity at the highest cell concentration [2] [%] | Kd (Met) [nM] | binding result [3] |
| --- | --- | --- | --- | --- |
| 89Zr-N-sucDf-DN30 (antibody, mouse IgG2a, kappa, V domains shown, N-succinyl-desferal (N-sucDf) chelate carrying 89Zr coupled to lysine residues, approximately 1 N-sucDf moiety per DN30 molecule; positions not given) VH: QVQLQQPGTELVKPGASVKLSCKASGYTFTSYWIHWVKQRPGQGLEWIGEINPSSGRTNYNEKFKNKVTVTVDKSSTTAYMQLSNLTSEDSAVYYCASRGYWGQGTTLTVSS VL: DIVLTQSPASLAVSLGQRATISCKASQSVDYDGGSYMSWFQQRPGQPPKLLISAASNLESGIPARFSGSGSGTDFTLNIHPVEEEDVATYYCQQSYEDPLTFGAGTKLELKR | > 95 | > 70 | – | – |
| 131I-DN30 (antibody, mouse IgG2a, kappa, V domains shown, radioiodinated with 131I (IODO-GEN method); positions not given) VH: QVQLQQPGTELVKPGASVKLSCKASGYTFTSYWIHWVKQRPGQGLEWIGEINPSSGRTNYNEKFKNKVTVTVDKSSTTAYMQLSNLTSEDSAVYYCASRGYWGQGTTLTVSS VL: DIVLTQSPASLAVSLGQRATISCKASQSVDYDGGSYMSWFQQRPGQPPKLLISAASNLESGIPARFSGSGSGTDFTLNIHPVEEEDVATYYCQQSYEDPLTFGAGTKLELKR | > 95 | > 70 | – | – |

Next, values leading:

| immunoreactivity at infinite antigen excess [1] [%] | immunoreactivity at the highest cell concentration [2] [%] | Kd (Met) [nM] | binding result [3] | Binder |
| --- | --- | --- | --- | --- |
| – | – | 2.64 | – | murine IgG2a MAb DN30 (antibody, V domains shown, Murine IgG2a from the hybridoma; also called anti-Met monoclonal antibody produced by the hybridoma cell line ICLC PD 05006) VH: QVQLQQPGTELVKPGASVKLSCKASGYTFTSYWIHWVKQRPGQGLEWIGEINPSSGRTNYNEKFKNKVTVTVDKSSTTAYMQLSNLTSEDSAVYYCASRGYWGQGTTLTVSS VL: DIVLTQSPASLAVSLGQRATISCKASQSVDYDGGSYMSWFQQRPGQPPKLLISAASNLESGIPARFSGSGSGTDFTLNIHPVEEEDVATYYCQQSYEDPLTFGAGTKLELKR |
| – | – | – | binds | biotinylated DN30 (antibody, mouse IgG2a, kappa, V domains shown, biotinylated; positions not given) VH: QVQLQQPGTELVKPGASVKLSCKASGYTFTSYWIHWVKQRPGQGLEWIGEINPSSGRTNYNEKFKNKVTVTVDKSSTTAYMQLSNLTSEDSAVYYCASRGYWGQGTTLTVSS VL: DIVLTQSPASLAVSLGQRATISCKASQSVDYDGGSYMSWFQQRPGQPPKLLISAASNLESGIPARFSGSGSGTDFTLNIHPVEEEDVATYYCQQSYEDPLTFGAGTKLELKR |
